Source: PMC12753105, “Evolution of a fuzzy ribonucleoprotein complex in viral assembly” (eLife, 2025)

Target: the molecule itself
Assay: dynamic light scattering

B1: LRS peptide N_(210-246):G214C (peptide)
peptide: MAGNCGDAALALLLLDRLNQLESKMSGKGQQQQGQTV
notes: also called N_(LRS, 210-246):G214C; G214C cysteine mutant LRS peptide
B1: binds.
